Reference: US20230103584A1 (BLACK BELT THERAPEUTICS, published 2023)

Columns and labels:
[1] = molecular target: Recombinant, Histidine-tagged extracellular domain of human CD38 (human) (UniProt P28907); test: ForteBio BLI
[2] = molecular target: T1, Human CD38 expressed on cells (Daudi, Raji, Jurkat, human PBMC/T cells, Tregs, HEK-293T transfectants) (human, UniProt P28907 1-300); test: cell-based or functional assay
T1 sequence: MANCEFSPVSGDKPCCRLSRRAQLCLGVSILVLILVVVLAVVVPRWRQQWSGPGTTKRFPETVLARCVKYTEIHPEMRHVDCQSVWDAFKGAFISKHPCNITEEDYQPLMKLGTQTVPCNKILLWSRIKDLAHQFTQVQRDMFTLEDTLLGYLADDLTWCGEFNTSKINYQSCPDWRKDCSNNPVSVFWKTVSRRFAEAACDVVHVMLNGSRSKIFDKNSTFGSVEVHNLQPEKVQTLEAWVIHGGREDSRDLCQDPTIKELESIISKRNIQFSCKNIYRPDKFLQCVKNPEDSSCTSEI

[3] = molecular target: T1, Human CD38 expressed on cells (Daudi, …); test: cell-based or functional assay; remark: listed apart in the source
[4] = molecular target: T1, Human CD38 expressed on cells (Daudi, …); test: cell-based or functional assay; remark: listed apart in the source
[5] = molecular target: T1, Human CD38 expressed on cells (Daudi, …); test: cell-based or functional assay; remark: listed apart in the source
[6] = molecular target: T2, Cynomolgus monkey CD38 expressed on T cells / PBMC (Cynomolgus monkey, UniProt Q5VAN0 1-301); test: flow cytometry on cynomolgus cells, gated on CD4-positive cells, secondary antibody staining
T2 construct: whole, on cells; also called cyno T cells; cynomolgus pan T cells
T2 sequence (looked up): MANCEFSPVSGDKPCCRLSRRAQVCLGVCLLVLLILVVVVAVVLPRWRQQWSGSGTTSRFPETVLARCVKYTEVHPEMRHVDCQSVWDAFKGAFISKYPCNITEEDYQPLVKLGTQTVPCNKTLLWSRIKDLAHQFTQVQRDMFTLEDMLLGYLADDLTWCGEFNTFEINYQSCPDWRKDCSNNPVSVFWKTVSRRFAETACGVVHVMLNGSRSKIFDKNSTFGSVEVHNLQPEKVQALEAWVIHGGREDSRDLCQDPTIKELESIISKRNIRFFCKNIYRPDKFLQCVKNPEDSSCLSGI

[7] = molecular target: T2, Cynomolgus monkey CD38 expressed on T …; test: flow cytometry on cynomolgus cells, gated on CD8-positive cells, secondary antibody staining

“IB4, reference monoclonal agonistic mouse anti-human CD38 antibody” was tested, and the Kd [1] was 9 nM.

B1: aCD38-b-348 (human IgG1) (antibody, V domains shown)
VH: QLQLQESGPGLVKPSETLSLTCTVSGGSISSSDYYWGWIRQPPGKGLEWIGSIYYSGSTYYNPSLKSRVTISVDTSKNQFSLKLSSVTAADTAVYYCARGQYSSGWYAYPFDMWGQGTMVTVSS
VL: EIVLTQSPGTLSLSPGERATLSCRASQSVRSSYLAWYQQKPGQAPRLLIYGASSRATGIPDRFSGSGSGTDFTLTISRLEPEDFAVYYCQQDGNVYTFGGGTKVEIK
notes: First made as IgG in yeast
B1 was tested, and the “ADCC EC50, target Daudi cells (experiment 6)” value [2] was 0.32 ng/mL, the “ADCC EC50, target Daudi cells (experiment 7)” value [2] was 0.8 ng/mL and the “ADCC EC50, target Daudi cells (experiment 8)” value [2] was 0.42 ng/mL. The “CDC EC50, 10% complement, target Daudi cells (experiment 15)” value [3] was 0.17 µg/mL, the “CDC EC50, 10% complement, target Daudi cells (experiment 16)” value [3] was 0.34 µg/mL and the “CDC EC50, 10% complement, target Daudi cells (experiment 17)” value [3] was 0.26 µg/mL. The “CDC EC50, 10% complement, target Raji cells” value [4] was 0.3 µg/mL, the “CDC EC50, 10% complement, target Raji cells (repeat)” value [4] was 0.17 µg/mL and the “ADCC Max. % lysis” value [5] was 44%. The “EC50 (read off the curve)” value [6] was about 0.9 µg/mL and the “EC50 (read off the curve)” value [7] was about 0.9 µg/mL.

B2: aCD38-b-348-m3 (antibody, IgG1, V domains shown)
VH: QLQLQESGPGLVKPSETLSLTCTVSGGSISSSDYYWGWIRQPPGKGLEWIGSIYYSGSTYYNPSLKSRVTISVDTSKNQFSLKLSSVTAADTAVYYCARGQYSSGWYAYPFDMWGQGTMVTVSS
VL: EIVLTQSPGTLSLSPGERATLSCRASQSVRSSYLAWYQQKPGQAPRLLIYGASSRATGIPDRFSGSGSGTDFTLTISRLEPEDFAVYYCQQDANVYTFGGGTKVEIK
In the case of B2, the “ADCC Max. % lysis” value [5] is reported as 39%.

B3: aCD38-b-348-m2 (antibody, IgG1, V domains shown)
VH: QLQLQESGPGLVKPSETLSLTCTVSGGSISSSDYYWGWIRQPPGKGLEWIGSIYYSGSTYYNPSLKSRVTISVDTSKNQFSLKLSSVTAADTAVYYCARGQYSSGWYAYPFDMWGQGTMVTVSS
VL: EIVLTQSPGTLSLSPGERATLSCRASQSVRSSYLAWYQQKPGQAPRLLIYGASSRATGIPDRFSGSGSGTDFTLTISRLEPEDFAVYYCQQDSNVYTFGGGTKVEIK
In the case of B3, the “ADCC Max. % lysis” value [5] is reported as 44%.

B4: aCD38-b-348-m1 (antibody, IgG1, V domains shown)
VH: QLQLQESGPGLVKPSETLSLTCTVSGGSISSSDYYWGWIRQPPGKGLEWIGSIYYSGSTYYNPSLKSRVTISVDTSKNQFSLKLSSVTAADTAVYYCARGQYSSGWYAYPFDMWGQGTMVTVSS
VL: EIVLTQSPGTLSLSPGERATLSCRASQSVRSSYLAWYQQKPGQAPRLLIYGASSRATGIPDRFSGSGSGTDFTLTISRLEPEDFAVYYCQQEANVYTFGGGTKVEIK
With B4 the “ADCC Max. % lysis” value [5] was 38%.

B5: aCD38-b-348-m4 (antibody, IgG1, V domains shown)
VH: QLQLQESGPGLVKPSETLSLTCTVSGGSISSSDYYWGWIRQPPGKGLEWIGSIYYSGSTYYNPSLKSRVTISVDTSKNQFSLKLSSVTAADTAVYYCARGQYSSGWYAYPFDMWGQGTMVTVSS
VL: EIVLTQSPGTLSLSPGERATLSCRASQSVRSSYLAWYQQKPGQAPRLLIYGASSRATGIPDRFSGSGSGTDFTLTISRLEPEDFAVYYCQQEGNVYTFGGGTKVEIK
B5 was tested, and the “ADCC Max. % lysis” value [5] was 38%.
